# Tested on: K4 kissing-loop RNA reporter
# Test: apparent KD of K4 kissing-loop reporter; higher = weaker reporter binding
# Settings: Eterna round: R107
# Description: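 RNA-MaP round R107: designed RNA switches with theophylline, tryptophan, arginine or FMN aptamers are transcribed on-chip within common flanks. They are titrated with a labelled K4 kissing-loop RNA reporter in RNA-MaP buffer (100 mM Tris pH 7.5, 80 mM KCl, 4 mM MgCl2), without ligand or with the indicated ligand. Median apparent KD per design.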
# [1] = input ligand: theophylline 20 uM
# [2] = input ligand: tryptophan 2.4 mM
# 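Further: bound reporter read as fluorescence of individual clusters on recovered sequencing chips by microscopy, with normalized cluster intensities fitted with a binding model.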
Sequence,apparent KD of K4 kissing-loop reporter (input ligand: FMN 200 uM) [nM],apparent KD of K4 kissing-loop reporter (input ligand: arginine 13.2 mM) [nM],apparent KD of K4 kissing-loop reporter (input ligand: none) [nM],apparent KD of K4 kissing-loop reporter [1] [nM],apparent KD of K4 kissing-loop reporter [2] [nM]
GGAUUCGGCGCGGCCGCCACUUCCGGUGGCUGGUGUCAUGGUGCGCGUGAGUGAUGUUUAUGUGGGAGGACCGGGCGUUGAGUCC [whbob_Ex_Tryp_B_w45],577,322,767,441,305
UGGCGGACGAUCCGGAGUGAUGUUCCGGAUACCAGCAGAAGAGCCUGCCCUUGGCAGCCGUGCGACGCUGGGAGAGUCCGGCGUC [Requered],104,88,104,107,99.7
AAGUGUUCUAGUGAUACCAGACAUUUCAAUUACAUUAAUAUAGCUAAGUGAUGUUUAGCAGUCCCUUGGCAGCACUAUUUCACUA [JR_SSTheophyB_Sub016],130,144,135,149,131
UUUUUAUUCAGUGAUGUUGAAUUUAUAUCAGAGGAUAUGCAUAAAAGCAGAAGGCUGAAAUACUAUACUUUAAUAAAUUAUAUUU [JR_SSFMNA_Sub017],249,326,320,370,217
CUGUACAUCUCGGCCGCCACUGACAUGAGUGAUGUUCAUGUACAUGAGUGAUGUUCAUGUUCGGCCAGGACCGGGAGGUGUGCAG [KL-SSTryp-B2 #analogue #double KL],352,184,274,271,216
UCGAGUUGACGAAAAGUCAACUCGUGAGAUACCAGUGACGAAAGUCACCCUUGGCAGCUCACUGCCAGUGAUGUUGGUAUAUAGA [#05 K4 Theophylline A Same State],146,80.8,105,217,87.5
UGGAGUUGACGAAAAGUCAACUCCUGGGAAGGAGCGGACGAAAGUCCAGGUAGGUCGCCCACUACCAGUGAUGUUGGUACUUCAA,241,274,271,254,209
CUGGGUUGACGAAAAGUCAACAAAUGAGAAGGAGCGCACGAAAGUGCAGGUAGGUCGCUCAAUCCAGUGAUGUUGGAUCAUCCAG [#SwitchBubble 12 #K4Late],571,601,649,638,472
AAACGUUGGUGCGAUACCAGCUGCUCGGAAACGAGCUUGCUGGAGUGAUGUUCCAGGAAAAGCCCUUGGCAGCGCACCGACGAAA [MAT - Same State Theophlline B - Mod of Eli - D27],856,561,2040,738,715
CAUGCCAUGAUCCUCCUGGUAUCUCCUGAUACCAGCGUGCUGACACGCCCUUGGCAGCAGGAGUCGAGAGUGAUGUUGUCGAGAA [KL-SSTheo-A9 #analogue],568,174,184,373,328
AAGGGCGGGACUUCCUCGCCGGAUAGAGAUACCAGCCCUGCAAAGGGCCCUUGGCAGCUCACUGACCUCAGUGAUGUUGAGGUUC [Maanveri],252,210,234,209,223
GCCGUCCGGUCGCAAGACCGGACAGCCGAUACCAGCGCGAAGGCGCGCCCUUGGCAGCGGCACCGAGUGAUGUUCGGUCAGGCGG [#2 Same State - Theophylline A Attempt #2 (HarryS)],179,148,173,128,166
CGAUGUUCCUGGGAUACCAGUCGGAGUCUCAGAGCUCGGAGUGAUGUUCUGGGAUGUUUCGGCCCUUGGCAGCUCUGGGACUCCC [#2 Exclusion - Theophylline B Attempt #23 (HarryS)],843,615,818,682,722
GGAUCCUAGGCGGCCGCCACUCCAAUUGGCCGAAAGGCCUGAUACCGAGUGAUGUUCGGUUGGAGGAGGACCGGGCCUAGGAUCC [#2 Exclusion - Tryptophan B Attempt #2 (HarryS)],144,132,118,165,104
GAGAGCCCUGGAGGAUAUGAGUCUAGUGAUGUUAGGCGGUCCAUGCGCGUGGCGCGUUAUGCCCUUUUAGAAGGCCAGGGCUCUC [#2 Exclusion - FMN B Attempt #18 (HarryS)],109,68.5,88.5,85.2,89.7
UGUAUGUGAUUUGAUACCAGACCAUCUUGUGAGAAGUGAGUGAUGUUUAUUUUGGUUUGGGUCCCUUGGCAGCAAAUCGCAUACU [KL-SSTheoB23],777,560,826,619,738

Sequence,apparent KD of K4 kissing-loop reporter (input ligand: FMN 200 uM) [nM],apparent KD of K4 kissing-loop reporter (input ligand: arginine 13.2 mM) [nM],apparent KD of K4 kissing-loop reporter (input ligand: none) [nM],apparent KD of K4 kissing-loop reporter [1] [nM],apparent KD of K4 kissing-loop reporter [2] [nM]
UUUGGUUGUGGUGUUGAUUAGGGAGCGGAAGGAGCGCCGAGGAGGGCAGGUAGGUCGCCGGAAUGUAGUGAUGUUGCAUAGAGGU [ExArgA.Ad],325,277,198,603,341
CCUAUCUCAUACGAUACCAGUGAUUAACCAGUGAUGUUGGAAUAACCAAGGAAUAUUUUUCACCCUUGGCAGCGUAUGGGAUAGG [Ex Theophylline B K4 26],78,38,59.1,61.9,49.6
UGAUCUCAGUGAUGUUGAGAUCAAACUGAUACCAGUCAAUUUAGUGACCCUUGGCAGCAGUAUACCAAGGGAUCUUAUGAGAUCA [Theo A SS t5],173,152,165,162,154
UAUUUAAUGUCAGGAUAUCGUAUACGAGUGAUGUUCGUAUUUCUACUAUAGAUUAUUUAAAUUUUUCGAGAAGGGACAAUAUUUA [KL-SSFMN-B4],177,208,193,186,158
UCCUGCUGUCAGCCACGAAAGUGGAUUGAUACCAGAGUCGAAAGACUCCCUUGGCAGCGAGUGAUGUUCGCAGCAGGUAAAUAAA [MatMod 3 - Jieux - Exclusion - Theophylline A],358,257,269,356,256
UGUCAUUGGUCGGCCGCCACUAGGACCGGGUAUAACCUAGUGAUGUUAGUGAGUACGGCCGCCACUAGGACCGGGACCGAUGACU [KL-SSTryp-B120 #DoubleAptamer],531,319,857,572,91.9
GGGUCUGCGCGAAGGAGCGCCCUGACAGGUUGCUGCCGUGGGCAGUGAUGUUGCUCAGUCCGGCAGGUAGGUCGCGUGCAGACCC,135,161,176,169,160
GGAGAGCGAAAAGGAUAUGCGUCCGUCAAAAUUAUGUAGCGCGGAAAAUGGUAGUGAUGUUGCAAAGCAGAAGGUUUCAGAUGUA [theeternabot_sameState_KL_FMN_B_43],260,259,450,519,216
AGAAUAAUAAAUUUGGAGUGAUGUUCCGGACGAGGACCGGUACGGCCGCCACUCGAAAGCAGUCUGCGAAAGCAGACUGCAAGGA [Tesla SS Tryp A 1],817,449,580,349,645
GGUAUCUAUACAGAUACCAGUCGUACAGCACCAUUACAGGUUAGUGAUGUUAACCUGUACGACCCUUGGCAGCUGUAUUAUAAUA [#15 K4 Theophylline B Exclusion],94.3,88.7,86.8,91.4,85.2
AAGCAGUCACGCGAAGCCAUCGAAGAUGGACGAGGACCGGUACGGCCGCCACUCGGAGUGAUGUUCCGAAGACUGCAAAAUAAAA,515,499,420,599,363
UCUGCAAAGUCGGCCGCCACUCCGGGCCCUAUAAAUGGGCGCAGUGAUGUUGCGGCUAGGCCUCUGAGGACCGGGACUUUGUAGA [Atlesoqu],87.5,54.3,100,132,246
GUGCGCGCGGCGGCCGCCACUCGCAUGAGAGUGAUGUUCUCGGGACUGACGGAAGUCAGUCAUGGGAGGACCGGGCCGGGCUGCG [#2 Same State - Tryptophan B Attempt #13 (HarryS)],360,958,208,1140,521
GCGCGCGGCGGAGGAUAUAGCCGGUGAUCCGAGAAAGUGAGUGAUGUUUACGGAGUUGAGGAUAUGUUAGAAGGCCGCCGCGCGC [abcdefghijklmnopqrstuvwx],339,751,1000,792,789
GGGAGGAUUAAAUAAAUAAAUAAGAUAGAUACCAGUUGAGAGUAAGGCCCUUGGCAGCUAAAACGAGUGAUGUUCGAGUAAAUCC [Default title],81.6,88.8,63,147,62.4
